Test results reported in patent US20110034673A1.

Target: human HB-EGF on cells (membrane type and cell membrane-bound HB-EGF of human cancer cell lines) (human) (UniProt Q99075)
Experiment: cell-based or functional assay

human HB-EGF on cells (membrane type and cell membrane-bound HB-EGF of human cancer cell lines) (human), sequence (Q99075 63-148 limits assumed): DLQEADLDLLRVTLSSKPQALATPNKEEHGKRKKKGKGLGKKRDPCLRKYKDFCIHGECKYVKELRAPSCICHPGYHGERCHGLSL

ADCC activity relative to KM3966 (fold of KM3966): 0.1
B1: anti-HB-EGF humanized antibody HV0LV0 (antibody, V domains shown)
VH: QVQLVQSGAEVKKPGASVKVSCKASGYTFTTYGITWVRQAPGQGLEWMGEIFPGSGNTYYNEKFKGRVTITADKSTSTAYMELSSLRSEDTAVYYCARESFSDGYYGYFDYWGQGTLVTVSS
VL: DIVMTQSPDSLAVSLGERATINCKSSQSLLYSTNQKNSLAWYQQKPGQPPKLLIYWASTRESGVPDRFSGSGSGTDFTLTISSLQAEDVAVYYCQQYYRYPLTFGQGTKLEIK
